Measured values published in paper PMC6003922, “Functional switching of ascorbate peroxidase 2 of rice (OsAPX2) between peroxidase and molecular chaperone” (Scientific Reports, 2018).

Biological target: the molecule itself
Test: SEC; Superdex 200 10/300 GL, FPLC, 50 mM Tris-HCl pH 7.5, 100 mM NaCl, 0.5 mL/min, 4 °C; four fractions: F1 HMW complexes (>2,000 kDa), F2 and F3 LMW forms (between 158 and 440 kDa), F4 major dimeric form

B1: recombinant Oryza sativa ascorbate peroxidase 2 (OsAPX2) protein (enzyme, UniProt Q9FE01 1-251, looked up)
chain: MGSKSYPTVSDEYLAAVGKAKRKLRGLIAEKNCAPLMLRLAWHSAGTFDVSSRTGGPFGTMKNPGEQSHAANAGLDIAVRLLDPIKDQLPILSYADFYQLAGVVAVEVTGGPEVPFHPGRQDKPEPPPEGRLPDATQGSDHLRQVFSAQMGLSDKDIVALSGGHTLGRCHKERSGFEGAWTSNPLIFDNSYFTELVSGEKEGLLQLPSDKALMADPAFRPLVEKYAADEDAFFADYAEAHLKLSELGFAEE
notes: Ascorbate peroxidase 2 (OsAPX2), cytosolic, Oryza sativa; the OsAPX2 gene cloned into pET28a; monomer of approximately 27 kDa on reducing SDS-PAGE; Haem-containing peroxidase; also called His-tagged OsAPX2; purified OsAPX2; source: E. coli BL21 (DE3), pET28a, purified (nickel-nitrilotriacetate agarose; SEC)
stoichiometry N: 2
